Measurements from publication PMC3431306 (2012).

Legend:
[1] = target: CPSF6_(313–327) peptide (cleavage and polyadenylation specific factor 6, residues 313–327) (UniProt Q16630-2 313-327); assay: ITC
[2] = target: CPSF6_(313–327) peptide (cleavage and polyadenylation specific factor 6, residues 313–327) (UniProt Q16630-2 313-327, N-terminal His tag omitted; strain not given, isolate Petaluma taken; CA residues 1-139 by alignment to HIV-1 CA 1-146); assay: ITC

Binder	Kd [1] [µM]	Kd [2] [µM]
HIV-2 CA N-terminal domain (CA^N) (domain or fragment) not shown	350	–
FIV CA N-terminal domain (CA^N) (domain or fragment) PIQTVNGVPQYVALDPKMVSIFMEKAREGLGGEEVQLWFTAFSANLTPTDMATLIMAAPGCAADKEILDESLKQLTAEYDRTHPPDAPRPLPYFTAAEIMGIGLTQEQQAEARFAPARMQCRAWYLEALGKLAAIKAKS	–	242
